Data: patent US20160031974A1 (UCB, published 2016)

B1: A26 Fab′-PEG (A26 Fab-40K PEG′ described in WO2010/096418) (Fab, V domains shown)
VH: EVQLVESGGGLVQPGGSLRLSCAASGFTFTNYGIHWIRQAPGKGLEWVASISPSGGLTYYRDSVKGRFTISRDDAKNSPYLQMNSLRAEDTAVYYCATGGEGIFDYWGQGTLVTVSS
VL: DIQMTQSPSSLSASVGDRVTITCRATQSIYNALAWYQQKPGKAPKLLIYNANTLHTGVPSRFSASGSGTDSTLTISSLQPEDFATYYCQQYYDYPLTFGGGTKVEIKR
modifications: 40K PEG; site of attachment not given
B2: A26 Fab′ (Fab, V domains shown)
VH: B1 VH
VL: B1 VL
B3: A26 Fab-dsFv (645gH5gL4) (bispecific antibody)
heavy: EVQLVESGGGLVQPGGSLRLSCAASGFTFTNYGIHWIRQAPGKGLEWVASISPSGGLTYYRDSVKGRFTISRDDAKNSPYLQMNSLRAEDTAVYYCATGGEGIFDYWGQGTLVTVSSASTKGPSVFPLAPSSKSTSGGTAALGCLVKDYFPEPVTVSWNSGALTSGVHTFPAVLQSSGLYSLSSVVTVPSSSLGTQTYICNVNHKPSNTKVDKKVEPKSCSGGGGSGGGGTGGGGSEVQLLESGGGLVQPGGSLRLSCAVSGIDLSNYAINWVRQAPGKCLEWIGIIWASGTTFYATWAKGRFTISRDNSKNTVYLQMNSLRAEDTAVYYCARTVPGYSTAPYFDLWGQGTLVTVSS
light: DIQMTQSPSSLSASVGDRVTITCRATQSIYNALAWYQQKPGKAPKLLIYNANTLHTGVPSRFSASGSGTDSTLTISSLQPEDFATYYCQQYYDYPLTFGGGTKVEIKRTVAAPSVFIFPPSDEQLKSGTASVVCLLNNFYPREAKVQWKVDNALQSGNSQESVTEQDSKDSTYSLSSTLTLSKADYEKHKVYACEVTHQGLSSPVTKSFNRGECGGGGSGGGGSGGGGSDIQMTQSPSSVSASVGDRVTITCQSSPSVWSNFLSWYQQKPGKAPKLLIYEASKLTSGVPSRFSGSGSGTDFTLTISSLQPEDFATYYCGGGYSSISDTTFGCGTKVEIKRT
notes: also called A26 Fab-Fv; Fab-Fv

Key:
[1] = molecular target: T1, Human OX40 expressed on the cell surface (activated human CD4+ OX40+ T cells) (human, UniProt P43489 29-277); assay: flow cytometry saturation binding on activated human CD4+ OX40+ T cells, with 5% HSA
T1 construct: whole, on cells; Also used as the target for the functional assays on human PBMC; also called cell-surface expressed OX40
T1 sequence (looked up): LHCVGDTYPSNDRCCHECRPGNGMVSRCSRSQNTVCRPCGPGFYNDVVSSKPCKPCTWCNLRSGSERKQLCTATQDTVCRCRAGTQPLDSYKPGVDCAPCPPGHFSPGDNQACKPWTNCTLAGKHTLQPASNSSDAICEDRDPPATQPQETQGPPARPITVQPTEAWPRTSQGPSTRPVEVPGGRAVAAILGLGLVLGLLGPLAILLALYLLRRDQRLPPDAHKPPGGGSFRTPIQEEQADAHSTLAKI
Experimental: (§1) Specific binding of antibody to receptor at equilibrium across a range of antibody concentrations was used to determine KD, assuming that only a very small fraction of antibody was bound to receptor at any point on the binding curve.
(§2) PBMC were isolated by separation on a Ficoll gradient and activated with 4 μg/mL PHA-L for 3 days at 37° C., 5% CO₂, 100% humidity. Following this, CD4⁺ T cells were isolated by negative selection using magnetic beads (CD4⁺ T cell Isolation Kit II for Human; Miltenyi Biotec). Approximately 1×10⁵ cells were incubated in the presence of antibody in either Facs buffer (PBS/0.2% BSA/0.09% NaN3) or Facs buffer supplemented with 5% HSA, at 4° C. The final concentration of the antibody ranged from 48 nM-0.0005 nM. The cells were washed in PBS prior to analysis by flow cytometry using a FACScalibur (Becton Dickinson). […] The number of moles of bound antibody was calculated by using interpolated values from a standard curve generated from beads comprised of differing but known amounts of fluorescent dye. Geometric mean fluorescence values were determined in the flow cytometric analyses of cells and beads. Non-specific binding was subtracted from the A26 Fab-Fv values and the specific binding curve thus generated analysed by non-linear regression using a one-site binding equation (Graphpad Prism®) to determine the KD.

[2] = molecular target: T1, Human OX40 expressed on the cell …; assay: cell-based or functional assay
[3] = molecular target: T1, Human OX40 expressed on the cell …; assay: flow cytometry competition on activated human CD4+OX40+ T cells; competitor OX40L (biotinylated CD252 muCD8) at 2 µg/mL
Experimental: (§3) The capacity of A26 Fab-dsFv to block the interaction between cell-surface expressed OX40 and recombinant OX40L was measured using a flow cytometry-based ligand blocking assay. Briefly, activated human CD4⁺OX40⁺ T cells were pre-incubated with a titration of A26 Fab-Fv. Recombinant OX40L was subsequently added to the cells and allowed to bind in the presence of A26 Fab-dsFv. The proportion of OX40L bound was then detected by flow cytometry using a labelled secondary reagent.
(§4) PBMC were isolated by separation on a Ficoll gradient and activated with 4 μg/mL PHA-L (Sigma) for 3 days at 37° C., 5% CO₂, 100% humidity. CD4⁺ T cells were then purified from the culture by negative selection using MACS columns (Miltenyi Biotech, CD4⁺ T cell isolation kit II). 2×10⁵ CD4⁺ T cells were incubated in the presence of A26 Fab-dsFv (final concentration range 10 μg/mL-0.000056 μg/mL (136.6 nM-0.000765 nM)) for 30 minutes at 4° C. OX40L (biotinylated CD252 muCD8, Ancell) was added at a final concentration of 2 μg/mL and incubated for a further 30 minutes at 4° C. Cells were washed and OX40L binding detected by incubation with PE-labelled streptavadin (Jackson Immunoresearch) prior to analysis by flow cytometry using a FACS Canto (Becton Dickinson). A matched non-OX40 binding Fab-dsFv was used as a control. The inhibition curve was analysed by non-linear regression (Graphpad Prism®) to determine the IC₅₀. […]

[4] = molecular target: T1, Human OX40 expressed on the cell …; assay: flow cytometry ligand-blocking assay on activated human CD4+ OX40+ T cells; blocked ligand: recombinant OX40L (biotinylated CD252 muCD8)
Experimental: as §3, §4

[5] = molecular target: T2, Human OX40 (soluble analyte in BIAcore) (human, UniProt P43489 29-214, limits assumed); assay: SPR (BIAcore T200), antibody captured by anti-human F(ab′)2, human OX40 as analyte; average of 4
T2 construct: also called hOX40
T2 sequence (looked up): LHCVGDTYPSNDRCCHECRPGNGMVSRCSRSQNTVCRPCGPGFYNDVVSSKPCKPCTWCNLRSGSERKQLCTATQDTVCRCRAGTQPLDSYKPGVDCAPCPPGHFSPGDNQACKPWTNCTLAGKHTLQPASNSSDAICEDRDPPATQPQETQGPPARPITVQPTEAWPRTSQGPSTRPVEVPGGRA
Experimental: (§5) BIA (Biamolecular Interaction Analysis) was performed using a BIAcore T200 (GE Healthcare). Affinipure F(ab′)₂ Fragment goat anti-human IgG, F(ab′)₂ fragment specific (Jackson ImmunoResearch) was immobilised on a CM5 Sensor Chip via amine coupling chemistry to a capture level of ≈5000 response units (RUs). HBS-EP buffer (10 mM HEPES pH 7.4, 0.15 M NaCl, 3 mM EDTA, 0.05% Surfactant P20, GE Healthcare) was used as the running buffer with a flow rate of 10 μL/min. A 10 μL injection of A26 Fab′ at 0.5 μg/mL or A26Fab-dsFv at 1 μg/mL was used for capture by the immobilised anti-human IgG-F(ab′)₂. Human OX40 was titrated over the captured A26 at various concentrations (25 nM to 1.5625 nM) at a flow rate of 30 μL/min. The surface was regenerated by 2×10 μL injection of 50 mM HCl, followed by a 5 μL injection of 5 mM NaOH at a flowrate of 10 μL/min. Background subtraction binding curves were analysed using the T200evaluation software (version 1.0) following standard procedures. Kinetic parameters were determined from the fitting algorithm.

[6] = molecular target: T1, Human OX40 expressed on the cell …; assay: flow cytometry binding on activated human CD4+ OX40+ T cells in 5% HSA, % maximal binding, mean of 4 or 5 donors
Experimental: Binding of AlexaFluor488-labelled A26 Fab-Fv to activated human CD4⁺0 X40⁺ T cells was measured by flow cytometry across a 5-log concentration range.
PBMC were isolated by separation on a Ficoll gradient and activated with 4 μg/mL PHA-L for 3 days at 37° C., 5% CO₂, 100% humidity. Following this, CD4⁺ T cells were isolated by negative selection using magnetic beads (CD4⁺ T cell Isolation Kit II for Human; Miltenyi Biotec). Approximately 1×10⁵ cells were incubated in the presence of antibody in either Facs buffer (PBS/0.2% BSA/0.09% NaN3) or Facs buffer supplemented with 5% HSA, at 4° C. The final concentration of the antibody ranged from 48 nM-0.0005 nM. The cells were washed in PBS prior to analysis by flow cytometry using a FACScalibur (Becton Dickinson). Titration data sets were also produced for isotype control antibodies for each A26 format to determine non specific binding. The number of moles of bound antibody was calculated by using interpolated values from a standard curve generated from beads comprised of differing but known amounts of fluorescent dye. Geometric mean fluorescence values were determined in the flow cytometric analyses of cells and beads. Non-specific binding was subtracted from the A26 Fab-Fv values and the specific binding curve thus generated analysed by non-linear regression using a one-site binding equation (Graphpad Prism®) to determine the KD.

[7] = molecular target: T1, Human OX40 expressed on the cell …; assay: cell-based or functional assay; remark: listed apart in the source
[8] = molecular target: T1, Human OX40 expressed on the cell …; assay: flow cytometry saturation binding on activated human CD4+ OX40+ T cells, no HSA
Experimental: as §1, §2

[9] = molecular target: T3, Human Serum Albumin (human, UniProt P02768 25-609); assay: SPR (BIAcore T200), Fab-Fv captured by anti-human F(ab′)2, albumin as analyte; average of 3
T3 construct: also called HSA; HAS [sic]
Experimental: as §5, with “Fab-Fv” for “A26 Fab′”, “0.75” for “0.5 μg/mL or A26Fab-dsFv at 1”, “Serum Albumin (HSA), Mouse Serum albumin (MSA) and Cynomolgus Serum Albumin (CSA)” for “OX40”, “Fab-Fv” for “A26”, “(50” for “(25”, “6.25” for “1.5625”

[10] = molecular target: T4, Cynomolgus Serum Albumin (cynomolgus, UniProt A2V9Z4 25-608); assay: as above
T4 construct: also called CSA
Experimental: as §5, with “Fab-Fv” for “A26 Fab′”, “0.75” for “0.5 μg/mL or A26Fab-dsFv at 1”, “Serum Albumin (HSA), Mouse Serum albumin (MSA) and Cynomolgus Serum Albumin (CSA)” for “OX40”, “Fab-Fv” for “A26”, “(50” for “(25”, “6.25” for “1.5625”

[11] = molecular target: T5, Mouse Serum albumin (mouse, UniProt P07724 25-608); assay: as above
T5 construct: also called MSA
Experimental: as §5, with “Fab-Fv” for “A26 Fab′”, “0.75” for “0.5 μg/mL or A26Fab-dsFv at 1”, “Serum Albumin (HSA), Mouse Serum albumin (MSA) and Cynomolgus Serum Albumin (CSA)” for “OX40”, “Fab-Fv” for “A26”, “(50” for “(25”, “6.25” for “1.5625”

Binder	Kd [1] [nM]	Inhibition of IL-5 Production EC50 (human HDM in vitro assay) [2] [nM]	Inhibition of IL-13 Production EC50 (human HDM in vitro assay) [2] [nM]	EC50 [3] [nM]	IC50 (read off the curve) [4] [nM]	Kd [5] [nM]	koff [5] [s⁻¹]	kon [5] [M⁻¹ s⁻¹]	EC50 (read off the curve) [6] [nM]	EC50 for inhibition of human MLR proliferative response [7] [nM]	Kd [8] [nM]	Kd [9] [nM]	koff [9] [s⁻¹]	kon [9] [M⁻¹ s⁻¹]	Kd [10] [nM]	koff [10] [s⁻¹]	kon [10] [M⁻¹ s⁻¹]	Kd [11] [nM]	koff [11] [s⁻¹]	kon [11] [M⁻¹ s⁻¹]
B1	0.23	1.31	0.928	0.739	~0.7	0.0484	1.12e-05	233000	~0.2	0.88	0.322									
B2	0.068	0.68	0.335	0.242	~0.3	≤ 0.0468	≤ 1e-05	218000	~0.09	0.25	0.085									
B3												2.93	0.000163	58400	2.66	0.000189	71000	4.16	0.000368	88600
